Target: cation-independent mannose-6-phosphate receptor (CIMPR) on fibroblast cells (UniProt P11717)
Sequence (P11717 41-2491): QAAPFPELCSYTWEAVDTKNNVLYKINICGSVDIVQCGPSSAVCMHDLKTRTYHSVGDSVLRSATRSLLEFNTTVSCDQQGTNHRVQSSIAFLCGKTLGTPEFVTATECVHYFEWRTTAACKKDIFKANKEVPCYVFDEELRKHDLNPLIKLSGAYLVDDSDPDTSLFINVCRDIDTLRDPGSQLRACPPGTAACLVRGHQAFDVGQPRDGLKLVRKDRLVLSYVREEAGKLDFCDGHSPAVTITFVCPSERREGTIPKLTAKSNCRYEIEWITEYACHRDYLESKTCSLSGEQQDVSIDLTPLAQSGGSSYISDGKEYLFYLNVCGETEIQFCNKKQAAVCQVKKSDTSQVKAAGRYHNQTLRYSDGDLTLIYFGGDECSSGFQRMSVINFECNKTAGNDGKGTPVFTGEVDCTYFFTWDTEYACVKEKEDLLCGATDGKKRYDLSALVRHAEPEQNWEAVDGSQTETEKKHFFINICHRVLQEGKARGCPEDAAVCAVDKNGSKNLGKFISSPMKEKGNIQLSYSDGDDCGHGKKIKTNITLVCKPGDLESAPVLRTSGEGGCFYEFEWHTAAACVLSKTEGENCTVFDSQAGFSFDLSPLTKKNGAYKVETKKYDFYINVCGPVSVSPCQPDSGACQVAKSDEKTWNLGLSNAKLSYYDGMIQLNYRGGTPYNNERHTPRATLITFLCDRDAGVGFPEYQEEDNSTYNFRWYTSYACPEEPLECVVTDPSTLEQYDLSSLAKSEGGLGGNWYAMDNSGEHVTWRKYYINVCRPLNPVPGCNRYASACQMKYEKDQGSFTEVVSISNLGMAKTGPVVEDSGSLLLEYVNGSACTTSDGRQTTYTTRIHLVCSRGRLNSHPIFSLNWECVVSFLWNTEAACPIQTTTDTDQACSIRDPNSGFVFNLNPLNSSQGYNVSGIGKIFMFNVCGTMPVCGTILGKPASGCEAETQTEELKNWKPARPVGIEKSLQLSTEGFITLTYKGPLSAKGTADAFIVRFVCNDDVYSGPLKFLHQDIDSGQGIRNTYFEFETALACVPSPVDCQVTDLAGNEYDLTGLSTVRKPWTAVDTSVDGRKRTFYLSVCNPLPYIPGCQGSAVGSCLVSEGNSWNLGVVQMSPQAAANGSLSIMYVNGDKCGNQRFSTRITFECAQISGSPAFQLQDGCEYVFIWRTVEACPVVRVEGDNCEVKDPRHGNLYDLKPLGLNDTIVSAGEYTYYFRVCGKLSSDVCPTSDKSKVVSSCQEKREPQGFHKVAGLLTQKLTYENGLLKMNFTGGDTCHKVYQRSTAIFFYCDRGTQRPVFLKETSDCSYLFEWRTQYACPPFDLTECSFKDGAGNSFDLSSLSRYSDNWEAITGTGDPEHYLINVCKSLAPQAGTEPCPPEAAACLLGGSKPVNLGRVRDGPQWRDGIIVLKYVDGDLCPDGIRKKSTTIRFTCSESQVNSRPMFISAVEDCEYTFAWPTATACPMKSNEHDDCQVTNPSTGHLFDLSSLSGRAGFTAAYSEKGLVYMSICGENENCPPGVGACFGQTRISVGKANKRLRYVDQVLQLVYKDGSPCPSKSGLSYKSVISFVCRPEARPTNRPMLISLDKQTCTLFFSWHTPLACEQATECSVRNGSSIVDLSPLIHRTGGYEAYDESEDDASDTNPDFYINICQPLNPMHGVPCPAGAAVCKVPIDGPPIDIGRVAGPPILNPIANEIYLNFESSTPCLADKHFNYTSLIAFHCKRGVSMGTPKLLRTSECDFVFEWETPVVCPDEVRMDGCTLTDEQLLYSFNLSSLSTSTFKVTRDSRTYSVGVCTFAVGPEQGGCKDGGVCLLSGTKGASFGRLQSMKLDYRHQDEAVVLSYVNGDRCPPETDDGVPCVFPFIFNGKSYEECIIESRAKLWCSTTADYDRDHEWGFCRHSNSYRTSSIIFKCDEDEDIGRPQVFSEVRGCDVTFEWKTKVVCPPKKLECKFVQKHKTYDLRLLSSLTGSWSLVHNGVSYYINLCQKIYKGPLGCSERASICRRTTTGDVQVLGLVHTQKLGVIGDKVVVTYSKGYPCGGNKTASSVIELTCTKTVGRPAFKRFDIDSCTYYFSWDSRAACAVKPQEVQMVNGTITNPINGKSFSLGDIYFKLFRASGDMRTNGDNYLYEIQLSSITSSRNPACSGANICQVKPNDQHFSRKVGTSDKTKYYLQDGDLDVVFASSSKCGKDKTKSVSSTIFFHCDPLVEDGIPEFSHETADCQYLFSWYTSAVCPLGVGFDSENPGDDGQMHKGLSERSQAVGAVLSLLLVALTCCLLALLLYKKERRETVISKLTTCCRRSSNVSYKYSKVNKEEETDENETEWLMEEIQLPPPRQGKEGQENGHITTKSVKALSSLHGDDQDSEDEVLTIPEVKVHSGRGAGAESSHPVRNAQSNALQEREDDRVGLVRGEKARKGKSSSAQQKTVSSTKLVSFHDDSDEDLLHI

| Substance | stated: internalized (GAA activity inside CRL 2076 normal fibroblasts) | stated: internalized (GAA activity inside PM25 Pompe fibroblasts) |
| --- | --- | --- |
| ATB200 recombinant human acid α-glucosidase (rhGAA) | The curve labelled ATB200 rises steeply from 0 to about 33 nmol/mg protein/hr at about 25 nM. It then stays on a plateau of about 34 up to about 240 nM. The +M6P point (triangle) at about 240 nM lies at about 5, near the zero line. | The curve labelled ATB200 rises steeply from 0 to about 30 at about 10 nM and about 36 at about 27 nM. The fitted plateau is about 41 nmol/mg protein/hr from about 80 nM. The last point, at about 240 nM, is about 45. The +M6P points at about 245 nM lie at about 1-4, near the zero line. |
| LUMIZYME® (alglucosidase alfa, conventional rhGAA product) | The curve labelled Alglucosidase Alfa rises gradually from 0: about 8 at about 10 nM, about 16 at about 27 nM and about 23 at about 80 nM. It reaches about 35 nmol/mg protein/hr at about 240 nM, where it meets the ATB200 curve. The +M6P point (square) at about 240 nM lies at about 1, on the zero lin | The curve labelled Alglucosidase Alfa rises gradually from 0: about 7 at about 10 nM, about 13 at about 27 nM and about 26 at about 80 nM. It reaches about 37 nmol/mg protein/hr at about 240 nM and stays below the ATB200 curve throughout. The +M6P points at about 245 nM lie at about 1-4, near the ze |

Source: patent US20260207718
